Patent US20260184748A1, “COMPOSITIONS COMPRISING OCTADECANEUROPEPTIDES (ODN) AND SYNTHETIC DERIVATIVES THEREOF AND METHODS OF USE FOR MODULATION OF FOOD INTAKE, OBESITY, BODY WEIGHT, NAUSEA, AND EMESIS” (The Trustees of the University of Pennsylvania, priority 2022, published 2026)

Key:
Experiment in all cases: cell-based or functional assay
[1] = molecular target: BDKRB2 (UniProt P30411)
[2] = molecular target: CCR2 (UniProt P41597)
[3] = molecular target: T1, CCR1 (UniProt P32246)
T1 sequence (looked up): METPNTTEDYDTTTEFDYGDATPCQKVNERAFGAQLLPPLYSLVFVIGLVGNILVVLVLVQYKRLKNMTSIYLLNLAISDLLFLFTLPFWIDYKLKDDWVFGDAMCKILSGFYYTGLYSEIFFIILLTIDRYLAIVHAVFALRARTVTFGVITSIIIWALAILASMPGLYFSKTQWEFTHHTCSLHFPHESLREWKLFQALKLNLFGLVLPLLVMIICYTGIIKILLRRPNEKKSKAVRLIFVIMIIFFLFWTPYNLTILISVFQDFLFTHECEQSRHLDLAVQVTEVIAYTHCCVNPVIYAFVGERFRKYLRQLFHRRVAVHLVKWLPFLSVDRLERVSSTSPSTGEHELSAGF

[4] = molecular target: CCR5 (UniProt P51681)
[5] = molecular target: CCR3 (UniProt P51677)
[6] = molecular target: CCR7 (UniProt P32248)
[7] = molecular target: T2, CCR6 (UniProt P51684)
T2 sequence (looked up): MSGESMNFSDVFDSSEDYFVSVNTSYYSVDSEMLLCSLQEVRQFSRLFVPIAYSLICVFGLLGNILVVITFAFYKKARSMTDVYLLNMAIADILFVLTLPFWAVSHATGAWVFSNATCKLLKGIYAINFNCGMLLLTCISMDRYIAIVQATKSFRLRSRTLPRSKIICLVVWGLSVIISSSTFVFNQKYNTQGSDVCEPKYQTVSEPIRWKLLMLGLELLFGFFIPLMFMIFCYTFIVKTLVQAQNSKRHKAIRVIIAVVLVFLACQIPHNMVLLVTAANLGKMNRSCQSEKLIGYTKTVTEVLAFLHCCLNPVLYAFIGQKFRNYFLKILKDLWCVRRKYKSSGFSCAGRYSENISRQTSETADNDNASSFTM

[8] = molecular target: CCR9 (UniProt P51686)
[9] = molecular target: T3, CXCR1 (UniProt P25024)
T3 sequence (looked up): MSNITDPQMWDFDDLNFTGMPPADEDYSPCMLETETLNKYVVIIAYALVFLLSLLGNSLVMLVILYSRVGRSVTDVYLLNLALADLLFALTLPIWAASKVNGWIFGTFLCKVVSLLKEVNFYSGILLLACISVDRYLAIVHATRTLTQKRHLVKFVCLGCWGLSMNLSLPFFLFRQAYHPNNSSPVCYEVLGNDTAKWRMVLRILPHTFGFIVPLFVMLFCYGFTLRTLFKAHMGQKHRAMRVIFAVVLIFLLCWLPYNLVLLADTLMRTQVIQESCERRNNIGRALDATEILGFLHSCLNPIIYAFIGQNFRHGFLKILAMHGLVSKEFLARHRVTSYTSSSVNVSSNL

[10] = molecular target: CXCR2 (UniProt P25025)
[11] = molecular target: T4, CALCR (UniProt P30988)
T4 sequence (looked up): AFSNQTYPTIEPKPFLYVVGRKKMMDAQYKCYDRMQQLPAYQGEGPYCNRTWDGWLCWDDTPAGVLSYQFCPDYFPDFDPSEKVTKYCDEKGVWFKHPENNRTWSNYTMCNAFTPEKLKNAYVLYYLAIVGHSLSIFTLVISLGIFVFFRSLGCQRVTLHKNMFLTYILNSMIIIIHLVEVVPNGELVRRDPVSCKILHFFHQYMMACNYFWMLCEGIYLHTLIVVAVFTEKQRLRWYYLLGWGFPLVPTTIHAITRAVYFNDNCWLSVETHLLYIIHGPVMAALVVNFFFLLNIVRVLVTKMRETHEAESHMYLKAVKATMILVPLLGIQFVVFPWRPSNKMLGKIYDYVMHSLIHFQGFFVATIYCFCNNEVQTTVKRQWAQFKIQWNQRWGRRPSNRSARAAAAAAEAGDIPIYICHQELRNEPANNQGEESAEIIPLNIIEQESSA

[12] = molecular target: CALCR-RAMP2 (UniProt P30988)
[13] = molecular target: T5, CALCR-RAMP3 (UniProt P30988)
T5 sequence (looked up) 1: T4 sequence (looked up)
T5 sequence (looked up) 2: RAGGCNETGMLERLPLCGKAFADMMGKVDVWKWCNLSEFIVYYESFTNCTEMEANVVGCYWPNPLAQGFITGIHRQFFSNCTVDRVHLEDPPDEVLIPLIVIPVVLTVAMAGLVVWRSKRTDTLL

[14] = molecular target: GPR1 (UniProt P46091)
[15] = molecular target: C5L2 (UniProt Q9P296)
[16] = molecular target: C5aR1 (UniProt P21730)
[17] = molecular target: CX3CR1 (UniProt P49238)
[18] = molecular target: GIPR (UniProt P48546)
[19] = molecular target: GLP2R (UniProt O95838)
[20] = molecular target: GRPR (UniProt P30550)
[21] = molecular target: T6, GALR2 (UniProt O43603)
T6 sequence (looked up): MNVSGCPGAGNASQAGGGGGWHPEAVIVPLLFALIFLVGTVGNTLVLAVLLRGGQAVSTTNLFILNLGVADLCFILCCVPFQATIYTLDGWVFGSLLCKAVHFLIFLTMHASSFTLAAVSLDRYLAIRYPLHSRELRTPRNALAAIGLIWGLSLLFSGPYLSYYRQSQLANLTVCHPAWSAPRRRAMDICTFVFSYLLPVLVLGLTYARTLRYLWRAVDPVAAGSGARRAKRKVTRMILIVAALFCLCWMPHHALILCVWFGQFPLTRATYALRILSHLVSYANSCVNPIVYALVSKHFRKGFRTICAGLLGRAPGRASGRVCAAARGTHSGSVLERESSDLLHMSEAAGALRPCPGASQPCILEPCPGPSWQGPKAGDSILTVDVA

[22] = molecular target: KISS1R (UniProt Q969F8)
[23] = molecular target: BDKRB1 (UniProt P46663)
[24] = molecular target: MLNR (UniProt O43193)
[25] = molecular target: HCRTR2 (UniProt O43614)
[26] = molecular target: OXTR (UniProt P30559)
[27] = molecular target: NPY1R (UniProt P25929)
[28] = molecular target: PRLHR (UniProt P49683)
[29] = molecular target: relaxin-3 receptor (RXFP3) (UniProt Q9NSD7)
[30] = molecular target: SCTR (UniProt P47872)
[31] = molecular target: BRS3 (UniProt P32247)
[32] = molecular target: TRHR (UniProt P34981)
[33] = molecular target: VIPR1 (UniProt P32241)

Chain of CCL3 (P10147 24-92 limits assumed): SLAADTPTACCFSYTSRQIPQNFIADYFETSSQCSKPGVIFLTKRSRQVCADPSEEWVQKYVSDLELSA
Chain of CXCL8 (P10145 28-99 limits assumed): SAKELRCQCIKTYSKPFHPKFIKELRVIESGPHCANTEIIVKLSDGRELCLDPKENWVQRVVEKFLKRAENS
Chain of Complement C5a (P01031 678-751 limits assumed): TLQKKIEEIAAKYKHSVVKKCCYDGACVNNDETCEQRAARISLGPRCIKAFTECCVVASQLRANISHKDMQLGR
Chain of Calcitonin (P01258 85-116 limits assumed): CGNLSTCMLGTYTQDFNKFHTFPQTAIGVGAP
Chain of Galanin (P22466 33-62 limits assumed): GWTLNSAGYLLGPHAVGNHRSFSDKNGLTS
Chain of GPR1 (P46091 whole entry): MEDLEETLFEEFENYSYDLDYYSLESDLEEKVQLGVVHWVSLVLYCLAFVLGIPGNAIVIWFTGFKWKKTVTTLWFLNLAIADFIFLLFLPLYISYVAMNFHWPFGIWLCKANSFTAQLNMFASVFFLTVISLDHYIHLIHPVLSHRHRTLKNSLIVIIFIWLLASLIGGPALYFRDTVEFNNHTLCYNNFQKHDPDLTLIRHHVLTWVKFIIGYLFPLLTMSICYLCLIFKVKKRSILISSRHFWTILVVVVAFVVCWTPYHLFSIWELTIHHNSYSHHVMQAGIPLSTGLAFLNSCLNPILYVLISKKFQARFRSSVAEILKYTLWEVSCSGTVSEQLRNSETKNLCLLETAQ
Chain of SCTR (P47872 23-440 limits assumed): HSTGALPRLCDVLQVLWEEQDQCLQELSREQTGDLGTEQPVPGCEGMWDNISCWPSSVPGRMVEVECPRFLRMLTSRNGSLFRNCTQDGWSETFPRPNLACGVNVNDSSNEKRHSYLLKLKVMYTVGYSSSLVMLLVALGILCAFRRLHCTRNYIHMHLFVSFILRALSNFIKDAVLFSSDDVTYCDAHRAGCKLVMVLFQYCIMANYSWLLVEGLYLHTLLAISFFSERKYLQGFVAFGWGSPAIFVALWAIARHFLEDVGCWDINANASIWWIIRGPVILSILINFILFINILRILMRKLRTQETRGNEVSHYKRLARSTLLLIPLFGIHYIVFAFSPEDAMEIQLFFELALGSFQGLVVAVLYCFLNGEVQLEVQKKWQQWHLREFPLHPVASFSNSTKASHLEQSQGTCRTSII
Chain of CXCR2 (P25025 whole entry): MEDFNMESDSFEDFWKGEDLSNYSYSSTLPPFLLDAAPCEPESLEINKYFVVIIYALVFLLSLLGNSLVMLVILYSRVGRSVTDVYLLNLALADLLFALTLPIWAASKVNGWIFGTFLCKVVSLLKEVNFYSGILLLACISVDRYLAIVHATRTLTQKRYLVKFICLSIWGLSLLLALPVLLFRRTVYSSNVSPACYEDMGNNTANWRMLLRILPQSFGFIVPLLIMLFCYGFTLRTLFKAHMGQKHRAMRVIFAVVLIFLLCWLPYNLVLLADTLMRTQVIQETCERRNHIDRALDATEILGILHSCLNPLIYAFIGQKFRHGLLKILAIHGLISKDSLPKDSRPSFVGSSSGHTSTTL
Chain of relaxin-3 receptor (RXFP3) (Q9NSD7 whole entry): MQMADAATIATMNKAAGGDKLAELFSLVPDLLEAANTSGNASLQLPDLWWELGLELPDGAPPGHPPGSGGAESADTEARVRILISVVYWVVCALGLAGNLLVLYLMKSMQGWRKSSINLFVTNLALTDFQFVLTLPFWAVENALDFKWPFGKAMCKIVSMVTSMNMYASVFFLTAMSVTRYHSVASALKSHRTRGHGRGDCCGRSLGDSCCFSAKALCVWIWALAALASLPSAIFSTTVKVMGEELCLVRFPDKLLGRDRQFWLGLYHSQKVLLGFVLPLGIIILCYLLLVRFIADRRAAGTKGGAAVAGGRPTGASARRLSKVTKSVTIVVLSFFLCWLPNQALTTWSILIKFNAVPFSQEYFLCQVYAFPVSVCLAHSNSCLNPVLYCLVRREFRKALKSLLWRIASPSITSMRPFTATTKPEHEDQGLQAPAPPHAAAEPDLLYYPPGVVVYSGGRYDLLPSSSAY
Chain of GLP2R (O95838 whole entry): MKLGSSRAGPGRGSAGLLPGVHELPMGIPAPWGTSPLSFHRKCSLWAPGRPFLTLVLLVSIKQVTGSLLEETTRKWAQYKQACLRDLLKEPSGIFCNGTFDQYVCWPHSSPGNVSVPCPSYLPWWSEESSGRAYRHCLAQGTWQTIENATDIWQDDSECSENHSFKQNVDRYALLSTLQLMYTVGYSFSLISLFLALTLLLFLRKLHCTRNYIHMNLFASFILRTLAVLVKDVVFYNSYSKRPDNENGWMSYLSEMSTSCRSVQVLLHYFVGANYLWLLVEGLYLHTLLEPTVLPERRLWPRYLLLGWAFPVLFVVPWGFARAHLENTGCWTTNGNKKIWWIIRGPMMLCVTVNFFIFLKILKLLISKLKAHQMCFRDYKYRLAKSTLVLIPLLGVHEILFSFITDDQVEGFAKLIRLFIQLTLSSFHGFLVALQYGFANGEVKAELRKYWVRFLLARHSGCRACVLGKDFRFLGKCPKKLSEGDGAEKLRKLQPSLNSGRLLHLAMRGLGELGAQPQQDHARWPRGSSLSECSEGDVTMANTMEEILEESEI
Chain of CX3CR1 (P49238 whole entry): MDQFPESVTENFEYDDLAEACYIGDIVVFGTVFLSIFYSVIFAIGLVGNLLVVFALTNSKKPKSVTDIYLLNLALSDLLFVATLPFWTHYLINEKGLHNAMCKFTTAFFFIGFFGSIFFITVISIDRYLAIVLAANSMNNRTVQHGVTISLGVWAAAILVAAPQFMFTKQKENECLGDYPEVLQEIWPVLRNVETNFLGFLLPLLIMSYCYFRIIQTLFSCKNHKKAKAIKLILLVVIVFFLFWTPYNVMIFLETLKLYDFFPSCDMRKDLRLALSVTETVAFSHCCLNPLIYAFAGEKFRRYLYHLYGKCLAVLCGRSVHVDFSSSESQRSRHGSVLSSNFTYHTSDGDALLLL
Chain of CCL19 (Q99731 22-98 limits assumed): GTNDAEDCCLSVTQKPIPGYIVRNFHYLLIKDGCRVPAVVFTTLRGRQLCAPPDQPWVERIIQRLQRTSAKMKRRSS
Chain of KISS1R (Q969F8 whole entry): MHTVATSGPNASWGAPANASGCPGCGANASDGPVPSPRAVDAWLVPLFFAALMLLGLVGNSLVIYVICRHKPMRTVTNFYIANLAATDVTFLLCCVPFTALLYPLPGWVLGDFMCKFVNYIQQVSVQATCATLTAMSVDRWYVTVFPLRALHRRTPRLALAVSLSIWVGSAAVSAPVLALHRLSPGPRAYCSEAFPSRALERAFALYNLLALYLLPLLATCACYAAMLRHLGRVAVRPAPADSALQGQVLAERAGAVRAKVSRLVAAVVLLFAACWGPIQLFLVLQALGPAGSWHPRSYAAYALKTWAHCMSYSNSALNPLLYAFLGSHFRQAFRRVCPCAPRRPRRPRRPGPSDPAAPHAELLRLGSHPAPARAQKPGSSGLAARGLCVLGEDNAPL
Chain of C5L2 (Q9P296 whole entry): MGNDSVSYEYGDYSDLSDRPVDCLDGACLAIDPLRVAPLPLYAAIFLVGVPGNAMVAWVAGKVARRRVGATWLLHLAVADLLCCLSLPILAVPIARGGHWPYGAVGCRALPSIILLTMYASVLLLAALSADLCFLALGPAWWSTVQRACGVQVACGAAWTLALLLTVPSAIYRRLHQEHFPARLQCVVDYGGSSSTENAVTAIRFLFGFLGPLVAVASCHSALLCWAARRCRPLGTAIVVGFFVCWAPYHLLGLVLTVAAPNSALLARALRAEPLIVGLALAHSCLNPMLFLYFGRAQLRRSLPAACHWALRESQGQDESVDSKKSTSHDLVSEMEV
Chain of OXTR (P30559 whole entry): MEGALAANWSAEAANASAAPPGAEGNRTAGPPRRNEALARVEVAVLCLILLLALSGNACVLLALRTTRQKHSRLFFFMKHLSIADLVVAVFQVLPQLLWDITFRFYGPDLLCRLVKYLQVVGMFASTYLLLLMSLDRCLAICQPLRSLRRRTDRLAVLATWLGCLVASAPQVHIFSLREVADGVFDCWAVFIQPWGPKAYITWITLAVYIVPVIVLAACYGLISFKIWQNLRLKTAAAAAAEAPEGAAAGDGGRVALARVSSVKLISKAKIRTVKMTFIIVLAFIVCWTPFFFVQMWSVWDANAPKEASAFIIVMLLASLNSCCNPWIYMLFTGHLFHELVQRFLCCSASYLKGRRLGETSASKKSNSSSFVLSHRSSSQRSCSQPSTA
Chain of HCRTR2 (O43614 whole entry): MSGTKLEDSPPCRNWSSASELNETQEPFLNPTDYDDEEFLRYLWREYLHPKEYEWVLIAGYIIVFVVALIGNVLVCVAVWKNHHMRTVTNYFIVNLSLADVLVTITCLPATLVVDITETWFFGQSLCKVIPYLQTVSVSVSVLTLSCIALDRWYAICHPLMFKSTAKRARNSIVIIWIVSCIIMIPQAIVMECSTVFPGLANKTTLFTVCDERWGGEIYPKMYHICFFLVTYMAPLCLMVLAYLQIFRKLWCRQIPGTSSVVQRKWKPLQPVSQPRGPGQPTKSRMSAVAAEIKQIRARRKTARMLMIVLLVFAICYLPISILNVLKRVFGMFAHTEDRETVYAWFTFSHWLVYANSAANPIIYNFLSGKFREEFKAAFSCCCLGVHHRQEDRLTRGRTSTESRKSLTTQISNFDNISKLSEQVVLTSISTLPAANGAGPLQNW
Chain of CCR2 (P41597 other isoform, or with tags, fused parts or gaps limits assumed): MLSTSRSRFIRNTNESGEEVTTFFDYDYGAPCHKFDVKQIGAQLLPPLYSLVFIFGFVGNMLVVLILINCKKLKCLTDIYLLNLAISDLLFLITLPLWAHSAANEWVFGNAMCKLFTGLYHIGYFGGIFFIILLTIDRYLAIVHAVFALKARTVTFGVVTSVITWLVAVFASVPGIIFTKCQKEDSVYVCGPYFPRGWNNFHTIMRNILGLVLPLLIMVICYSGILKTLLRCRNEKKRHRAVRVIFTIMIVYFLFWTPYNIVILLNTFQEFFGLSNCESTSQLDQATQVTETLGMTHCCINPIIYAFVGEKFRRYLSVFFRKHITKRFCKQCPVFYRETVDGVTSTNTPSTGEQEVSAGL

“Bradykinin (from UniProt P01042 381-389) (peptide)” was tested, and the EC50 (RC50), arrestin, agonist mode [1] was 5.57 nM and the EC80, arrestin, agonist mode [1] was 9.82 nM.
For “CCL2 (from UniProt P13500 24-99) (ligand)”, the EC50 (RC50), arrestin, agonist mode [2] was 2.63 nM and the EC80, arrestin, agonist mode [2] was 6.92 nM.
With “CCL3 (from UniProt P10147 24-92) (ligand)” the EC50 (RC50), arrestin, agonist mode [3] was 1.04 nM, the EC80, arrestin, agonist mode [3] was 2.53 nM and the EC50 (RC50), arrestin, agonist mode [4] was 7.55 nM. It also gave an EC80, arrestin, agonist mode [4] of 30.3 nM.
For “CCL13 (from UniProt Q99616 24-98) (ligand)”, the EC50 (RC50), arrestin, agonist mode [5] was 40.6 nM and the EC80, arrestin, agonist mode [5] was 140 nM.
Work on “CCL19 (from UniProt Q99731 22-98) (ligand)” yielded an EC50 (RC50), arrestin, agonist mode [6] of 5.65 nM and an EC80, arrestin, agonist mode [6] of 19 nM.
Substance “CCL20 (from UniProt P78556 27-96) (ligand)” has an EC50 (RC50), arrestin, agonist mode [7] of 2.95 nM and an EC80, arrestin, agonist mode [7] of 14.3 nM.
With “CCL25 (from UniProt O15444 24-150) (ligand)” the EC50 (RC50), arrestin, agonist mode [8] was 173 nM and the EC80, arrestin, agonist mode [8] was 370 nM.
Substance “CXCL8 (from UniProt P10145 28-99) (ligand)” has an EC50 (RC50), arrestin, agonist mode [9] of 2.8 nM, an EC80, arrestin, agonist mode [9] of 14.8 nM and an EC50 (RC50), arrestin, agonist mode [10] of 0.304 nM. For the same substance, the EC80, arrestin, agonist mode [10] was 0.968 nM.
Work on “Calcitonin (from UniProt P01258 85-116) (peptide)” yielded an EC80, arrestin, agonist mode [11] of 72.9 nM, an EC80, arrestin, agonist mode [12] of 33.7 nM and an EC80, arrestin, agonist mode [13] of 384 nM.
“Chemerin (from UniProt Q99969 21-157) (ligand)” gave an EC50 (RC50), arrestin, agonist mode [14] of 2.26 nM and an EC80, arrestin, agonist mode [14] of 4.67 nM.
For “Complement C5a (from UniProt P01031 678-751) (ligand)”, the EC50 (RC50), arrestin, agonist mode [15] was 1.57 nM, the EC80, arrestin, agonist mode [15] was 2.7 nM and the EC50 (RC50), arrestin, agonist mode [16] was 1.38 nM. The EC80, arrestin, agonist mode [16] was 3.64 nM.
For “Fractalkine (from UniProt P78423 25-100) (ligand)”, the EC50 (RC50), arrestin, agonist mode [17] was 0.444 nM and the EC80, arrestin, agonist mode [17] was 1.45 nM.
Work on “GIP (from UniProt P09681 52-93) (peptide)” yielded an EC50 (RC50), arrestin, agonist mode [18] of 4.87 nM and an EC80, arrestin, agonist mode [18] of 18.5 nM.
“GLP II (1-33) (from UniProt P01275 21-180) (peptide)” was tested, and the EC50 (RC50), arrestin, agonist mode [19] was 2.3 nM and the EC80, arrestin, agonist mode [19] was 8.97 nM.
“GRP (from UniProt P07492 24-50) (peptide)” showed an EC50 (RC50), arrestin, agonist mode [20] of 1.62 nM and an EC80, arrestin, agonist mode [20] of 5.92 nM.
For “Galanin (from UniProt P22466 33-62) (peptide)”, the EC50 (RC50), arrestin, agonist mode [21] was 6.81 nM and the EC80, arrestin, agonist mode [21] was 12.2 nM.
With “Kisspeptin-10 (from UniProt Q15726 112-121) (peptide)” the EC50 (RC50), arrestin, agonist mode [22] was 17.6 nM and the EC80, arrestin, agonist mode [22] was 37.6 nM.
With LDA-Bradykinin (peptide) the EC50 (RC50), arrestin, agonist mode [23] was 3.65 nM and the EC80, arrestin, agonist mode [23] was 14 nM.
For “Motilin (from UniProt P12872 26-47) (peptide)”, the EC50 (RC50), arrestin, agonist mode [24] was 1.59 nM and the EC80, arrestin, agonist mode [24] was 5.63 nM.
“Orexin A (from UniProt O43612 34-66) (peptide)” showed an EC50 (RC50), arrestin, agonist mode [25] of 18.2 nM and an EC80, arrestin, agonist mode [25] of 42.5 nM.
Substance “Oxytocin (from UniProt P01178 20-28) (peptide)” has an EC50 (RC50), arrestin, agonist mode [26] of 3.23 nM and an EC80, arrestin, agonist mode [26] of 7.19 nM.
Peptide YY (from UniProt P10082 29-64) was tested, and the EC50 (RC50), arrestin, agonist mode [27] was 3.93 nM and the EC80, arrestin, agonist mode [27] was 12.4 nM.
In the case of “PrRP-31 (from UniProt P81277 23-53) (peptide)”, the EC80, arrestin, agonist mode [28] is reported as 10.7 nM.
With “Relaxin-3 (from UniProt Q8WXF3 26-142; Q8WXF3 26-142) (ligand)” the EC50 (RC50), arrestin, agonist mode [29] was 11.9 nM and the EC80, arrestin, agonist mode [29] was 62.5 nM.
Work on “Secretin (from UniProt P09683 28-54) (peptide)” yielded an EC50 (RC50), arrestin, agonist mode [30] of 1.74 nM and an EC80, arrestin, agonist mode [30] of 9.2 nM.
With TAPN-Bombesin (peptide) the EC50 (RC50), arrestin, agonist mode [31] was 1.24 nM and the EC80, arrestin, agonist mode [31] was 3.73 nM.
For “TRH (from UniProt P20396 84-86) (peptide)”, the EC50 (RC50), arrestin, agonist mode [32] was 2.02 nM and the EC80, arrestin, agonist mode [32] was 7.14 nM.
Substance “VIP (from UniProt P01282 125-152) (peptide)” has an EC50 (RC50), arrestin, agonist mode [33] of 1.73 nM and an EC80, arrestin, agonist mode [33] of 3.69 nM.
